Measurements from patent US20210388087A1 (Chugai, published 2021).

B1: CE115HA000/GLS3000 V51I (antibody, IgG1, name in Kabat numbering, V domains shown)
VH: QVQLVESGGGVVQPGRSLRLSCAASGFTFSNAWMHWVRQAPGKGLEWVAQIKAKSNNYATYYAESVKGRFTISRDDSKNSLYLQMNSLKTEDTAVYYCRYVHYGAYYGVDAWGQGTTVTVSS
VL: DIVMTQSPLSLPVTPGEPASISCRSSQSLVHSNRNTYLHWYQQKPGQAPRLLIYKISNRFSGVPDRFSGSGSGTDFTLKISRVEAEDVGVYYCGQGTQVPYTFGQGTKLEIK
notes: one-arm IgG1
B2: CE115HA000/GLS3000 V94Q (antibody, IgG1, name in Kabat numbering, V domains shown)
VH: QVQLVESGGGVVQPGRSLRLSCAASGFTFSNAWMHWVRQAPGKGLEWVAQIKAKSNNYATYYAESVKGRFTISRDDSKNSLYLQMNSLKTEDTAVYYCRYVHYGAYYGVDAWGQGTTVTVSS
VL: DIVMTQSPLSLPVTPGEPASISCRSSQSLVHSNRNTYLHWYQQKPGQAPRLLIYKVSNRFSGVPDRFSGSGSGTDFTLKISRVEAEDVGVYYCGQGTQQPYTFGQGTKLEIK
notes: one-arm IgG1
B3: CE115HA000/GLS3000 V94E (antibody, IgG1, name in Kabat numbering, V domains shown)
VH: QVQLVESGGGVVQPGRSLRLSCAASGFTFSNAWMHWVRQAPGKGLEWVAQIKAKSNNYATYYAESVKGRFTISRDDSKNSLYLQMNSLKTEDTAVYYCRYVHYGAYYGVDAWGQGTTVTVSS
VL: DIVMTQSPLSLPVTPGEPASISCRSSQSLVHSNRNTYLHWYQQKPGQAPRLLIYKVSNRFSGVPDRFSGSGSGTDFTLKISRVEAEDVGVYYCGQGTQEPYTFGQGTKLEIK
notes: one-arm IgG1
B4: CE115HA000/GLS3000 V94F (antibody, IgG1, name in Kabat numbering, V domains shown)
VH: QVQLVESGGGVVQPGRSLRLSCAASGFTFSNAWMHWVRQAPGKGLEWVAQIKAKSNNYATYYAESVKGRFTISRDDSKNSLYLQMNSLKTEDTAVYYCRYVHYGAYYGVDAWGQGTTVTVSS
VL: DIVMTQSPLSLPVTPGEPASISCRSSQSLVHSNRNTYLHWYQQKPGQAPRLLIYKVSNRFSGVPDRFSGSGSGTDFTLKISRVEAEDVGVYYCGQGTQFPYTFGQGTKLEIK
notes: one-arm IgG1
B5: CE115HA000/GLS3000 V94Y (antibody, IgG1, name in Kabat numbering, V domains shown)
VH: QVQLVESGGGVVQPGRSLRLSCAASGFTFSNAWMHWVRQAPGKGLEWVAQIKAKSNNYATYYAESVKGRFTISRDDSKNSLYLQMNSLKTEDTAVYYCRYVHYGAYYGVDAWGQGTTVTVSS
VL: DIVMTQSPLSLPVTPGEPASISCRSSQSLVHSNRNTYLHWYQQKPGQAPRLLIYKVSNRFSGVPDRFSGSGSGTDFTLKISRVEAEDVGVYYCGQGTQYPYTFGQGTKLEIK
notes: one-arm IgG1
B6: CE115HA000/GLS3000 V94K (antibody, IgG1, name in Kabat numbering, V domains shown)
VH: QVQLVESGGGVVQPGRSLRLSCAASGFTFSNAWMHWVRQAPGKGLEWVAQIKAKSNNYATYYAESVKGRFTISRDDSKNSLYLQMNSLKTEDTAVYYCRYVHYGAYYGVDAWGQGTTVTVSS
VL: DIVMTQSPLSLPVTPGEPASISCRSSQSLVHSNRNTYLHWYQQKPGQAPRLLIYKVSNRFSGVPDRFSGSGSGTDFTLKISRVEAEDVGVYYCGQGTQKPYTFGQGTKLEIK
notes: one-arm IgG1
B7: CE115HA000/GLS3000 V94A (antibody, IgG1, name in Kabat numbering, V domains shown)
VH: QVQLVESGGGVVQPGRSLRLSCAASGFTFSNAWMHWVRQAPGKGLEWVAQIKAKSNNYATYYAESVKGRFTISRDDSKNSLYLQMNSLKTEDTAVYYCRYVHYGAYYGVDAWGQGTTVTVSS
VL: DIVMTQSPLSLPVTPGEPASISCRSSQSLVHSNRNTYLHWYQQKPGQAPRLLIYKVSNRFSGVPDRFSGSGSGTDFTLKISRVEAEDVGVYYCGQGTQAPYTFGQGTKLEIK
notes: one-arm IgG1
B8: CE115HA000/GLS3000 V94M (antibody, IgG1, name in Kabat numbering, V domains shown)
VH: QVQLVESGGGVVQPGRSLRLSCAASGFTFSNAWMHWVRQAPGKGLEWVAQIKAKSNNYATYYAESVKGRFTISRDDSKNSLYLQMNSLKTEDTAVYYCRYVHYGAYYGVDAWGQGTTVTVSS
VL: DIVMTQSPLSLPVTPGEPASISCRSSQSLVHSNRNTYLHWYQQKPGQAPRLLIYKVSNRFSGVPDRFSGSGSGTDFTLKISRVEAEDVGVYYCGQGTQMPYTFGQGTKLEIK
notes: one-arm IgG1
B9: CE115HA000/GLS3000 V94W (antibody, IgG1, name in Kabat numbering, V domains shown)
VH: QVQLVESGGGVVQPGRSLRLSCAASGFTFSNAWMHWVRQAPGKGLEWVAQIKAKSNNYATYYAESVKGRFTISRDDSKNSLYLQMNSLKTEDTAVYYCRYVHYGAYYGVDAWGQGTTVTVSS
VL: DIVMTQSPLSLPVTPGEPASISCRSSQSLVHSNRNTYLHWYQQKPGQAPRLLIYKVSNRFSGVPDRFSGSGSGTDFTLKISRVEAEDVGVYYCGQGTQWPYTFGQGTKLEIK
notes: one-arm IgG1
B10: CE115HA000/GLS3000 V51P (antibody, IgG1, name in Kabat numbering, V domains shown)
VH: QVQLVESGGGVVQPGRSLRLSCAASGFTFSNAWMHWVRQAPGKGLEWVAQIKAKSNNYATYYAESVKGRFTISRDDSKNSLYLQMNSLKTEDTAVYYCRYVHYGAYYGVDAWGQGTTVTVSS
VL: DIVMTQSPLSLPVTPGEPASISCRSSQSLVHSNRNTYLHWYQQKPGQAPRLLIYKPSNRFSGVPDRFSGSGSGTDFTLKISRVEAEDVGVYYCGQGTQVPYTFGQGTKLEIK
notes: one-arm IgG1
B11: CE115HA000/GLS3000 V94L (antibody, IgG1, name in Kabat numbering, V domains shown)
VH: QVQLVESGGGVVQPGRSLRLSCAASGFTFSNAWMHWVRQAPGKGLEWVAQIKAKSNNYATYYAESVKGRFTISRDDSKNSLYLQMNSLKTEDTAVYYCRYVHYGAYYGVDAWGQGTTVTVSS
VL: DIVMTQSPLSLPVTPGEPASISCRSSQSLVHSNRNTYLHWYQQKPGQAPRLLIYKVSNRFSGVPDRFSGSGSGTDFTLKISRVEAEDVGVYYCGQGTQLPYTFGQGTKLEIK
notes: one-arm IgG1
B12: CE115HA000/GLS3000 V94R (antibody, IgG1, name in Kabat numbering, V domains shown)
VH: QVQLVESGGGVVQPGRSLRLSCAASGFTFSNAWMHWVRQAPGKGLEWVAQIKAKSNNYATYYAESVKGRFTISRDDSKNSLYLQMNSLKTEDTAVYYCRYVHYGAYYGVDAWGQGTTVTVSS
VL: DIVMTQSPLSLPVTPGEPASISCRSSQSLVHSNRNTYLHWYQQKPGQAPRLLIYKVSNRFSGVPDRFSGSGSGTDFTLKISRVEAEDVGVYYCGQGTQRPYTFGQGTKLEIK
notes: one-arm IgG1
B13: CE115HA000/GLS3000 V94T (antibody, IgG1, name in Kabat numbering, V domains shown)
VH: QVQLVESGGGVVQPGRSLRLSCAASGFTFSNAWMHWVRQAPGKGLEWVAQIKAKSNNYATYYAESVKGRFTISRDDSKNSLYLQMNSLKTEDTAVYYCRYVHYGAYYGVDAWGQGTTVTVSS
VL: DIVMTQSPLSLPVTPGEPASISCRSSQSLVHSNRNTYLHWYQQKPGQAPRLLIYKVSNRFSGVPDRFSGSGSGTDFTLKISRVEAEDVGVYYCGQGTQTPYTFGQGTKLEIK
notes: one-arm IgG1
B14: CE115HA000/GLS3000 Y32A (antibody, IgG1, name in Kabat numbering, V domains shown)
VH: QVQLVESGGGVVQPGRSLRLSCAASGFTFSNAWMHWVRQAPGKGLEWVAQIKAKSNNYATYYAESVKGRFTISRDDSKNSLYLQMNSLKTEDTAVYYCRYVHYGAYYGVDAWGQGTTVTVSS
VL: DIVMTQSPLSLPVTPGEPASISCRSSQSLVHSNRNTALHWYQQKPGQAPRLLIYKVSNRFSGVPDRFSGSGSGTDFTLKISRVEAEDVGVYYCGQGTQVPYTFGQGTKLEIK
notes: one-arm IgG1
B15: CE115HA000/GLS3000 V94P (antibody, IgG1, name in Kabat numbering, V domains shown)
VH: QVQLVESGGGVVQPGRSLRLSCAASGFTFSNAWMHWVRQAPGKGLEWVAQIKAKSNNYATYYAESVKGRFTISRDDSKNSLYLQMNSLKTEDTAVYYCRYVHYGAYYGVDAWGQGTTVTVSS
VL: DIVMTQSPLSLPVTPGEPASISCRSSQSLVHSNRNTYLHWYQQKPGQAPRLLIYKVSNRFSGVPDRFSGSGSGTDFTLKISRVEAEDVGVYYCGQGTQPPYTFGQGTKLEIK
notes: one-arm IgG1
B16: CE115HA000/GLS3000 V94G (antibody, IgG1, name in Kabat numbering, V domains shown)
VH: QVQLVESGGGVVQPGRSLRLSCAASGFTFSNAWMHWVRQAPGKGLEWVAQIKAKSNNYATYYAESVKGRFTISRDDSKNSLYLQMNSLKTEDTAVYYCRYVHYGAYYGVDAWGQGTTVTVSS
VL: DIVMTQSPLSLPVTPGEPASISCRSSQSLVHSNRNTYLHWYQQKPGQAPRLLIYKVSNRFSGVPDRFSGSGSGTDFTLKISRVEAEDVGVYYCGQGTQGPYTFGQGTKLEIK
notes: one-arm IgG1
B17: CE115HA000/GLS3000 V94D (antibody, IgG1, name in Kabat numbering, V domains shown)
VH: QVQLVESGGGVVQPGRSLRLSCAASGFTFSNAWMHWVRQAPGKGLEWVAQIKAKSNNYATYYAESVKGRFTISRDDSKNSLYLQMNSLKTEDTAVYYCRYVHYGAYYGVDAWGQGTTVTVSS
VL: DIVMTQSPLSLPVTPGEPASISCRSSQSLVHSNRNTYLHWYQQKPGQAPRLLIYKVSNRFSGVPDRFSGSGSGTDFTLKISRVEAEDVGVYYCGQGTQDPYTFGQGTKLEIK
notes: one-arm IgG1
B18: CE115HA000/GLS3000 V94H (antibody, IgG1, name in Kabat numbering, V domains shown)
VH: QVQLVESGGGVVQPGRSLRLSCAASGFTFSNAWMHWVRQAPGKGLEWVAQIKAKSNNYATYYAESVKGRFTISRDDSKNSLYLQMNSLKTEDTAVYYCRYVHYGAYYGVDAWGQGTTVTVSS
VL: DIVMTQSPLSLPVTPGEPASISCRSSQSLVHSNRNTYLHWYQQKPGQAPRLLIYKVSNRFSGVPDRFSGSGSGTDFTLKISRVEAEDVGVYYCGQGTQHPYTFGQGTKLEIK
notes: one-arm IgG1
B19: CE115HA000/GLS3000 V94S (antibody, IgG1, name in Kabat numbering, V domains shown)
VH: QVQLVESGGGVVQPGRSLRLSCAASGFTFSNAWMHWVRQAPGKGLEWVAQIKAKSNNYATYYAESVKGRFTISRDDSKNSLYLQMNSLKTEDTAVYYCRYVHYGAYYGVDAWGQGTTVTVSS
VL: DIVMTQSPLSLPVTPGEPASISCRSSQSLVHSNRNTYLHWYQQKPGQAPRLLIYKVSNRFSGVPDRFSGSGSGTDFTLKISRVEAEDVGVYYCGQGTQSPYTFGQGTKLEIK
notes: one-arm IgG1
B20: CE115HA000/GLS3000 V94I (antibody, IgG1, name in Kabat numbering, V domains shown)
VH: QVQLVESGGGVVQPGRSLRLSCAASGFTFSNAWMHWVRQAPGKGLEWVAQIKAKSNNYATYYAESVKGRFTISRDDSKNSLYLQMNSLKTEDTAVYYCRYVHYGAYYGVDAWGQGTTVTVSS
VL: DIVMTQSPLSLPVTPGEPASISCRSSQSLVHSNRNTYLHWYQQKPGQAPRLLIYKVSNRFSGVPDRFSGSGSGTDFTLKISRVEAEDVGVYYCGQGTQIPYTFGQGTKLEIK
notes: one-arm IgG1
B21: CE115HA000/GLS3000 V94N (antibody, IgG1, name in Kabat numbering, V domains shown)
VH: QVQLVESGGGVVQPGRSLRLSCAASGFTFSNAWMHWVRQAPGKGLEWVAQIKAKSNNYATYYAESVKGRFTISRDDSKNSLYLQMNSLKTEDTAVYYCRYVHYGAYYGVDAWGQGTTVTVSS
VL: DIVMTQSPLSLPVTPGEPASISCRSSQSLVHSNRNTYLHWYQQKPGQAPRLLIYKVSNRFSGVPDRFSGSGSGTDFTLKISRVEAEDVGVYYCGQGTQNPYTFGQGTKLEIK
notes: one-arm IgG1

What follows are binders tested against T1, CD3 epsilon homodimer protein (UniProt P07766 23-126) (assay: SPR, antibody over immobilised CD3e homodimer;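 further: SPR at 25 °C with CD3 epsilon homodimer amine-coupled to a CM4 sensor chip and antibody flowed over as analyte in HBS-EP+ running buffer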).
T1 construct: also called CD3 (CD3 epsilon)
T1 sequence (P07766 23-126): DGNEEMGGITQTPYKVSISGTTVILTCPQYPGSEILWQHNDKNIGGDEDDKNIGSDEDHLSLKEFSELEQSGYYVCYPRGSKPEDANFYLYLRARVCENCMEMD

Row | Binder | KD ratio to GLS3000
1 | B1 | 0.69
2 | B2 | 1.1
3 | B3 | 1.18
4 | B4 | 1.75
5 | B5 | 2.45
6 | B6 | 0.91
7 | B7 | 1.05
8 | B8 | 2.74
9 | B9 | 1.81
10 | B10 | 6
11 | B11 | 3.06
12 | B12 | 1.11
13 | B13 | 1.06
14 | B14 | 66.8
15 | B15 | 1.1
16 | B16 | 2.59
17 | B17 | 1.05
18 | B18 | 1.16
19 | B19 | 0.81
20 | B20 | 1.46
21 | B21 | 0.96
